Values belong to the binder of their own block, whether it stands above or below them.
B1: Soluble human recombinant p97 (melanotransferrin) (other)
chain: GMEVRWCATSDPEQHKCGNMSEAFREAGIQPSLLCVRGTSADHCVQLIAAQEADAITLDGGAIYEAGKEHGLKPVVGEVYDQEVGTSYYAVAVVRRSSHVTIDTLKGVKSCHTGINRTVGWNVPVGYLVESGRLSVMGCDVLKAVSDYFGGSCVPGAGETSYSESLCRLCRGDSSGEGVCDKSPLERYYDYSGAFRCLAEGAGDVAFVKHSTVLENTDGKTLPSWGQALLSQDFELLCRDGSRADVTEWRQCHLARVPAHAVVVRADTDGGLIFRLLNEGQRLFSHEGSSFQMFSSEAYGQKDLLFKDSTSELVPIATQTYEAWLGHEYLHAMKGLLCDPNRLPPYLRWCVLSTPEIQKCGDMAVAFRRQRLKPEIQCVSAKSPQHCMERIQAEQVDAVTLSGEDIYTAGKKYGLVPAAGEHYAPEDSSNSYYVVAVVRRDSSHAFTLDELRGKRSCHAGFGSPAGWDVPVGALIQRGFIRPKDCDVLTAVSEFFNASCVPVNNPKNYPSSLCALCVGDEQGRNKCVGNSQERYYGYRGAFRCLVENAGDVAFVRHTTVFDNTNGHNSEPWAAELRSEDYELLCPNGARAEVSQFAACNLAQIPPHAVMVRPDTNIFTVYGLLDKAQDLFGDDHNKNGFKMFDSSNYHGQDLLFKDATVRAVPVGEKTTYRGWLGLDYVAALEGMSSQQCSG
notes: Provided by Biomarin Pharmaceutical Inc; also called soluble p97; MTf

Assays:
plasminogen [1] = biological target: T1, plasminogen (UniProt P00747 20-810); assay: SPR (BIAcore), plasminogen over immobilised p97, two state conformational change model (kd1)
T1 construct: Bought reagent; also called Plg; glu-plasminogen
Method: (§1) Ringer solution or a 50 mM Tris/HCl buffer (pH 7.5) containing 150 mM NaCl and 50 mM CaCl₂ is used as the eluent buffer. Proteins are diluted in the corresponding eluent buffer and injected onto the sensor chip surface. Protein interactions are analyzed using both the Langmuir binding model, which is the simplest model for 1:1 interaction between analyte and immobilized ligand, and a two-state conformational change model which describes a 1:1 binding of analyte to immobilized ligand followed by a conformational change.
(§2) The SPR response for these proteins is plotted in RU as a function of time.
(§3) About 8-10 ng/mm² of PAI-1 was also immobilized onto another well of a sensor chip surface using NHS/EDC coupling conditions.

[2] = biological target: the molecule itself; assay: SPR (BIAcore), soluble p97 injected over p97 immobilised on a CM5 chip
Method: as §1
(§4) Transcytosis experiments are performed at 37° C. for 2 hrs. […] At the end of the experiment, radiolabelled proteins are measured in the lower chamber of each well by TCA precipitation.

plasminogen [3] = biological target: T1, plasminogen; assay: cell-based or functional assay
plasminogen [4] = biological target: T1, plasminogen; assay: SPR (BIAcore), plasminogen over immobilised p97, two state conformational change model (ka1)
Method: as §1, §2, §3

plasminogen [5] = biological target: T1, plasminogen; assay: SPR (BIAcore), various concentrations of p97 injected over immobilised plasminogen; plasminogen immobilized, p97 injected
Method: as §1

[6] = biological target: T2, pro-urokinase plasminogen activator (pro-uPA) (UniProt P00749 21-431, limits assumed); assay: SPR (BIAcore), two state conformational change model; text value differs from Table 3
T2 construct: Bought reagent; also called sc-uPA; scu-PA
Method: (§5) Protein interactions are analyzed using both the Langmuir binding model, which is the simplest model for 1:1 interaction between analyte and immobilized ligand, and a two-state conformational change model which describes a 1:1 binding of analyte to immobilized ligand followed by a conformational change.
as §2, §3

[7] = biological target: T2, pro-urokinase plasminogen activator …; assay: SPR (BIAcore), pro-uPA over immobilised p97, two state conformational change model (kd1)
Method: as §5, §2, §3

[8] = biological target: T2, pro-urokinase plasminogen activator …; assay: SPR (BIAcore), pro-uPA over immobilised p97, two state conformational change model (apparent KD)
Method: as §5, §2, §3

plasminogen [9] = biological target: T1, plasminogen; assay: SPR (BIAcore), p97 over immobilised plasminogen, two state conformation change model
Method: as §1

plasmin = plasmin (UniProt P00747 97-810, limits assumed); assay: SPR (BIAcore), plasmin injected over immobilised p97
Method: as §1, §2, §3

plasminogen [10] = biological target: T1, plasminogen; assay: SPR (BIAcore), plasminogen over immobilised p97, two state conformational change model (apparent KD)
Method: as §1, §2, §3

[11] = biological target: T2, pro-urokinase plasminogen activator …; assay: SPR (BIAcore), pro-uPA over immobilised p97, two state conformational change model (ka1)
Method: as §5, §2, §3

[12] = biological target: B1; assay: SPR (BIAcore), angiostatin injected over immobilised p97
Method: as §1, §2, §3

[13] = biological target: B1; assay: SPR (BIAcore), RAP injected over immobilised p97
Method: as §1, §4

[14] = biological target: B1; assay: SPR (BIAcore), tPA injected over immobilised p97
Method: as §1, §2, §3

[15] = biological target: B1; assay: not described (Discussion; presumably SPR)

T1 sequence (P00747 20-810 limits assumed): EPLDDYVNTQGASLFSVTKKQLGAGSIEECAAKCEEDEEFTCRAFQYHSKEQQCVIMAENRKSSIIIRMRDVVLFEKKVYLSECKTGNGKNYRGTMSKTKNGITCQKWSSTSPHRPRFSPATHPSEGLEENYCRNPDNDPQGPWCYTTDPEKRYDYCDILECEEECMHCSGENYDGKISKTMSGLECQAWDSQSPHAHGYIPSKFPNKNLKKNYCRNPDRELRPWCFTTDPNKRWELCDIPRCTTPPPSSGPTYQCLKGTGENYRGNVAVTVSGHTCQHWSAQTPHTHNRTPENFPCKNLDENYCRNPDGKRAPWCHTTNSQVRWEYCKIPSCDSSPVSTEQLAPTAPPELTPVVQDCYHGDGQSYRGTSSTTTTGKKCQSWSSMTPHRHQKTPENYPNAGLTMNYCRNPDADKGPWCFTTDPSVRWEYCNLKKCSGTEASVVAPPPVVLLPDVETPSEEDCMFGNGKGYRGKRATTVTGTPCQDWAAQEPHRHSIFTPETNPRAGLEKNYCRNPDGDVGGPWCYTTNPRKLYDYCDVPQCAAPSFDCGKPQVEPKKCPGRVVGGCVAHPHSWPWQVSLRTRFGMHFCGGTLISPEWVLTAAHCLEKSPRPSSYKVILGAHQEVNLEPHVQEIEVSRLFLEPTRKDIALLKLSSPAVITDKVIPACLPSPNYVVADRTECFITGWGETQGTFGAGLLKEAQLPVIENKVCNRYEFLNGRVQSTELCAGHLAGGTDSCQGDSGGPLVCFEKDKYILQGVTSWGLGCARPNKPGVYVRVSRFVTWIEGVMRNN
Chain of plasmin (P00747 97-810 limits assumed): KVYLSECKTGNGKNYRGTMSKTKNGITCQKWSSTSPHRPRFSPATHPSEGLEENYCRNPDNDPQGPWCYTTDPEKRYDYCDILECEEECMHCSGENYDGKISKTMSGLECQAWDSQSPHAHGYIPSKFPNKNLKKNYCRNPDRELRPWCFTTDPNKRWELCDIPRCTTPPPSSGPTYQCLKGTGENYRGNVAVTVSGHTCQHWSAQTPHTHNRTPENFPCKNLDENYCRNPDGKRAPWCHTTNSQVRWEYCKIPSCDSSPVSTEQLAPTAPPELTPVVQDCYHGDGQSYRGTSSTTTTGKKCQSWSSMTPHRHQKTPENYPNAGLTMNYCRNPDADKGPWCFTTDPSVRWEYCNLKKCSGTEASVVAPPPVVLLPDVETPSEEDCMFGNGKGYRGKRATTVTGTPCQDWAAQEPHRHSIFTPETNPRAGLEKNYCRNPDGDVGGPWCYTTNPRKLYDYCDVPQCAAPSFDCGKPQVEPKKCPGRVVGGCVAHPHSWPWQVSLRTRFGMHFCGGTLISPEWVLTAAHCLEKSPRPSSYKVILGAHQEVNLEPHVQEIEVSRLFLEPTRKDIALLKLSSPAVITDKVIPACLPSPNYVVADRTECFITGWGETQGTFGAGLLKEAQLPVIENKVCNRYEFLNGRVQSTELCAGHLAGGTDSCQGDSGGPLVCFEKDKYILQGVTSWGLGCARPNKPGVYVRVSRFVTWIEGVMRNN

Binder: B1
- koff (plasminogen [1]): 0.043 s⁻¹
- binding result [2]: no binding (tested: 0.05 µg/µl (5 µg/100 µl))
- increase of plasminogen activation by tPA after 180 minutes (VLK-peptide hydrolysis) (plasminogen [3]): 6 fold
- increase of plasminogen activation by tPA in the presence of p97 (VLK peptide hydrolysis) (plasminogen [3]): 4 fold
- kon (plasminogen [4]): 21000 M⁻¹ s⁻¹
- Kd (plasminogen [5]): 275 nM
- kon [6]: 6600 M⁻¹ s⁻¹
- koff [7]: 0.0017 s⁻¹
- Kd [8]: 65 nM
- Kd (plasminogen [9]): 260 nM
- binding result (plasmin): no binding (tested: 0.05 µg/µl)
- Kd (plasminogen [10]): 350 nM
- kon [11]: 6620 M⁻¹ s⁻¹

B2: angiostatin (other, UniProt P00747 98-459, looked up)
chain: VYLSECKTGNGKNYRGTMSKTKNGITCQKWSSTSPHRPRFSPATHPSEGLEENYCRNPDNDPQGPWCYTTDPEKRYDYCDILECEEECMHCSGENYDGKISKTMSGLECQAWDSQSPHAHGYIPSKFPNKNLKKNYCRNPDRELRPWCFTTDPNKRWELCDIPRCTTPPPSSGPTYQCLKGTGENYRGNVAVTVSGHTCQHWSAQTPHTHNRTPENFPCKNLDENYCRNPDGKRAPWCHTTNSQVRWEYCKIPSCDSSPVSTEQLAPTAPPELTPVVQDCYHGDGQSYRGTSSTTTTGKKCQSWSSMTPHRHQKTPENYPNAGLTMNYCRNPDADKGPWCFTTDPSVRWEYCNLKKCSGTEA
notes: domain: angiostatin (plasminogen fragment)
- binding result [12]: no binding (tested: 0.05 µg/µl)

B5: ovalbumin (other, UniProt P01012 2-386, looked up)
chain: GSIGAASMEFCFDVFKELKVHHANENIFYCPIAIMSALAMVYLGAKDSTRTQINKVVRFDKLPGFGDSIEAQCGTSVNVHSSLRDILNQITKPNDVYSFSLASRLYAEERYPILPEYLQCVKELYRGGLEPINFQTAADQARELINSWVESQTNGIIRNVLQPSSVDSQTAMVLVNAIVFKGLWEKAFKDEDTQAMPFRVTEQESKPVQMMYQIGLFRVASMASEKMKILELPFASGTMSMLVLLPDEVSGLEQLESIINFEKLTEWTSSNVMEERKIKVYLPRMKMEEKYNLTSVLMAMGITDVFSSSANLSGISSAESLKISQAVHAAHAEINEAGREVVGSAEAGVDAASVSEEFRADHPFLFCIKHIATNAVLFFGRCVSP
- binding result [15]: no binding

Continued, values first:

- binding result [13]: no binding (tested: 0.05 µg/µl)
B3: receptor-associated protein (RAP) (other, UniProt P30533 35-357, looked up)
chain: YSREKNQPKPSPKRESGEEFRMEKLNQLWEKAQRLHLPPVRLAELHADLKIQERDELAWKKLKLDGLDEDGEKEARLIRNLNVILAKYGLDGKKDARQVTSNSLSGTQEDGLDDPRLEKLWHKAKTSGKFSGEELDKLWREFLHHKEKVHEYNVLLETLSRTEEIHENVISPSDLSDIKGSVLHSRHTELKEKLRSINQGLDRLRRVSHQGYSTEAEFEEPRVIDLWDLAQSANLTDKELEAFREELKHFEAKIEKHNHYQKQLEIAHEKLRHAESVGDGERVSRSREKHALLEGRTKELGYTVKKHLQDLSGRISRARHNEL

- binding result [14]: no binding (tested: 0.05 µg/µl)
B4: tissue plasminogen activator (tPA) (enzyme, UniProt P00750 36-562, looked up)
chain: SYQVICRDEKTQMIYQQHQSWLRPVLRSNRVEYCWCNSGRAQCHSVPVKSCSEPRCFNGGTCQQALYFSDFVCQCPEGFAGKCCEIDTRATCYEDQGISYRGTWSTAESGAECTNWNSSALAQKPYSGRRPDAIRLGLGNHNYCRNPDRDSKPWCYVFKAGKYSSEFCSTPACSEGNSDCYFGNGSAYRGTHSLTESGASCLPWNSMILIGKVYTAQNPSAQALGLGKHNYCRNPDGDAKPWCHVLKNRRLTWEYCDVPSCSTCGLRQYSQPQFRIKGGLFADIASHPWQAAIFAKHRRSPGERFLCGGILISSCWILSAAHCFQERFPPHHLTVILGRTYRVVPGEEEQKFEVEKYIVHKEFDDDTYDNDIALLQLKSDSSRCAQESSVVRTVCLPPADLQLPDWTECELSGYGKHEALSPFYSERLKEAHVRLYPSSRCTSQHLLNRTVTDNMLCAGDTRSGGPQANLHDACQGDSGGPLVCLNDGRMTLVGIISWGLGCGQKDVPGVYTKVTNYLDWIRDNMRP
notes: Bought reagent

From patent US20070053894A1 (TRANSFERT PLUS, published 2007)
